In US20240317847A1 (Bayer, published 2024):

B1: TPP-26291 (antibody, V domains shown)
VH: EVQLLESGGGLVQPGGSLRLSCAASGFTFSSYGMHWVRQAPGKGLEWVSVISYDGSYKYYADSVKGRFTISRDNSKNTLYLQMNSLRAEDTAVYYCAAGVPDYWGQGTLVTVSS
VL: QSVLTQPPSASGTPGQRVTISCTGSSSNIGAGYDVHWYQQLPGTAPKLLIYSNNERPSGVPDRFSGSKSGTSASLAISGLRSEDEADYYCAAWDPSLNGPVFGGGTKLTVL
B2: TPP-26300 (antibody, V domains shown)
VH: EVQLLESGGGLVQPGGSLRLSCAASGFTFSSYGMHWVRQAPGKGLEWVSVISYDGSYKYYADSVKGRFTISRDNSKNTLYLQMNSLRAEDTAVYYCAAGVPDYWGQGTLVTVSS
VL: QSVLTQPPSASGTPGQRVTISCTGSSSNIGAGYDVHWYQQLPGTAPKLLIYSNNERPSGVPDRFSGSKSGTSASLAISGLRSEDEADYYCAAWDSSLNGPVFGGGTKLTVL
B3: TPP-26306 (antibody, V domains shown)
VH: EVQLLESGGGLVQPGGSLRLSCAASGFTFSSYGMHWVRQAPGKGLEWVSVISYDGSYKYYADSVKGRFTISRDNSKNTLYLQMNSLRAEDTAVYYCAAGVPDYWGQGTLVTVSS
VL: QSVLTQPPSASGTPGQRVTISCTGSSSNIGAGYDVHWYQQLPGTAPKLLIYSNNERPSGVPDRFSGSKSGTSASLAISGLRSEDEADYYCAAWDQSLNGPVFGGGTKLTVL
B4: TPP-26295 (antibody, V domains shown)
VH: EVQLLESGGGLVQPGGSLRLSCAASGFTFSSYGMHWVRQAPGKGLEWVSVISYDGSYKYYADSVKGRFTISRDNSKNTLYLQMNSLRAEDTAVYYCAAGVPDYWGQGTLVTVSS
VL: QSVLTQPPSASGTPGQRVTISCTGSSSNIGAGYDVHWYQQLPGTAPKLLIYSNNERPSGVPDRFSGSKSGTSASLAISGLRSEDEADYYCAAWDHSLNGPVFGGGTKLTVL
B5: TPP-26294 (antibody, V domains shown)
VH: EVQLLESGGGLVQPGGSLRLSCAASGFTFSSYGMHWVRQAPGKGLEWVSVISYDGSYKYYADSVKGRFTISRDNSKNTLYLQMNSLRAEDTAVYYCAAGVPDYWGQGTLVTVSS
VL: QSVLTQPPSASGTPGQRVTISCTGSSSNIGAAYDVHWYQQLPGTAPKLLIYSNNERPSGVPDRFSGSKSGTSASLAISGLRSEDEADYYCAAWDDSLNGPVFGGGTKLTVL
B6: TPP-26298 (antibody, V domains shown)
VH: EVQLLESGGGLVQPGGSLRLSCAASGFTFSSYGMHWVRQAPGKGLEWVSVISYDGSYKYYADSVKGRFTISRDNSKNTLYLQMNSLRAEDTAVYYCAAGVPDYWGQGTLVTVSS
VL: QSVLTQPPSASGTPGQRVTISCLGSSSNIGAGYDVHWYQQLPGTAPKLLIYSNNERPSGVPDRFSGSKSGTSASLAISGLRSEDEADYYCAAWDDSLNGPVFGGGTKLTVL
B7: TPP-26304 (antibody, V domains shown)
VH: EVQLLESGGGLVQPGGSLRLSCAASGFTFSSYGMHWVRQAPGKGLEWVSVISYDGSYKYYADSVKGRFTISRDNSKNTLYLQMNSLRAEDTAVYYCAAGVPDYWGQGTLVTVSS
VL: QSVLTQPPSASGTPGQRVTISCTGSSSNIWAGYDVHWYQQLPGTAPKLLIYSNNERPSGVPDRFSGSKSGTSASLAISGLRSEDEADYYCAAWDDSLNGPVFGGGTKLTVL
B8: TPP-26299 (antibody, V domains shown)
VH: EVQLLESGGGLVQPGGSLRLSCAASGFTFSSYGMHWVRQAPGKGLEWVSVISYDGSYKYYADSVKGRFTISRDNSKNTLYLQMNSLRAEDTAVYYCAAGVPDYWGQGTLVTVSS
VL: QSVLTQPPSASGTPGQRVTISCTGSSSNIGAGYDVHWYQQLPGTAPKLLIYSNNERPSGVPDRFSGSKSGTSASLAISGLRSEDEADYYCAAWDDSLYGPVFGGGTKLTVL
B9: TPP-26292 (antibody, V domains shown)
VH: EVQLLESGGGLVQPGGSLRLSCAASGFTFSSYGMHWVRQAPGKGLEWVSVISYDGSYKYYADSVKGRFTISRDNSKNTLYLQMNSLRAEDTAVYYCAAGVPDYWGQGTLVTVSS
VL: QSVLTQPPSASGTPGQRVTISCTGSSSNIGAGYDVHWYQQLPGTAPKLLIYSNNERPSGVPDRFSGSKSGTSASLAISGLRSEDEADYYCAAWDESLNGPVFGGGTKLTVL
B10: TPP-26302 (antibody, V domains shown)
VH: EVQLLESGGGLVQPGGSLRLSCAASGFTFSSYGMHWVRQAPGKGLEWVSVISYDGSYKYYADSVKGRFTISRDNSKNTLYLQMNSLRAEDTAVYYCAAGVPDYWGQGTLVTVSS
VL: QSVLTQPPSASGTPGQRVTISCTGSSSNIGAGYDVHWYQQLPGTAPKLLIYSNNERPSGVPDRFSGSKSGTSASLAISGLRSEDEADYYCSAWDDSLNGPVFGGGTKLTVL
B11: TPP-26297 (antibody, V domains shown)
VH: EVQLLESGGGLVQPGGSLRLSCAASGFTFSSYGMHWVRQAPGKGLEWVSVISYDGSYKYYADSVKGRFTISRDNSKNTLYLQMNSLRAEDTAVYYCAAGVPDYWGQGTLVTVSS
VL: QSVLTQPPSASGTPGQRVTISCTGSSSNIGAGYDVHWYQQLPGTAPKLLIYSNNERPSGVPDRFSGSKSGTSASLAISGLRSEDEADYYCAAWQDSLNGPVFGGGTKLTVL
B12: TPP-26303 (antibody, V domains shown)
VH: EVQLLESGGGLVQPGGSLRLSCAASGFTFSSYGMHWVRQAPGKGLEWVSVISYDGSYKYYADSVKGRFTISRDNSKNTLYLQMNSLRAEDTAVYYCAAGVPDYWGQGTLVTVSS
VL: QSVLTQPPSASGTPGQRVTISCTGSSSNIGAGYDVHWYQQLPGTAPKLLIYSNNERPEGVPDRFSGSKSGTSASLAISGLRSEDEADYYCAAWDDSLNGPVFGGGTKLTVL
B13: TPP-26296 (antibody, V domains shown)
VH: EVQLLESGGGLVQPGGSLRLSCAASGFTFSSYGMHWVRQAPGKGLEWVSVISYDGSYKYYADSVKGRFTISRDNSKNTLYLQMNSLRAEDTAVYYCAAGVPDYWGQGTLVTVSS
VL: QSVLTQPPSASGTPGQRVTISCTGSSSNIGAGYDVHWYQQLPGTAPKLLIYSNNERPSGVPDRFSGSKSGTSASLAISGLRSEDEADYYCAAWDNSLNGPVFGGGTKLTVL
B14: TPP-26293 (antibody, V domains shown)
VH: EVQLLESGGGLVQPGGSLRLSCAASGFTFSSYGMHWVRQAPGKGLEWVSVISYDGSYKYYADSVKGRFTISRDNSKNTLYLQMNSLRAEDTAVYYCAAGVPDYWGQGTLVTVSS
VL: QSVLTQPPSASGTPGQRVTISCTGSSSNIGAWYDVHWYQQLPGTAPKLLIYSNNERPSGVPDRFSGSKSGTSASLAISGLRSEDEADYYCAAWDDSLNGPVFGGGTKLTVL

What was measured:
human IL2Ra = molecular target: T1, human IL2Ra (human, UniProt P01589 22-240, limits assumed); experiment: IL2Ra direct binding ELISA, signal ratio to isotype control
T1 construct: bought protein, coated on the plate; also called hIL2RA; IL-2 receptor alpha
T1 sequence (looked up): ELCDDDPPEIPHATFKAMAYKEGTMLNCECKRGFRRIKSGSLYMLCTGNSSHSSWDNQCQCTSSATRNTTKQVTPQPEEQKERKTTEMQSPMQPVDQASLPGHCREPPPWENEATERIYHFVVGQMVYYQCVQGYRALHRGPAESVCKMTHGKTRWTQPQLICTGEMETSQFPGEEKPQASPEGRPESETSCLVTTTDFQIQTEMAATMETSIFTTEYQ
Description: IL2RA (Peprotech, Germany, #200-02RC) was coated at 1 or 0 μg/ml (buffer only control) in 30 μl coating buffer (Candor, #113500) per well on a 384 well microtiter plate (Maxisorb, Nunc, #460518) over night at 4-8° C. After two washes with 50 μl/well washing buffer (PBS+0.05% Tween, pH 7.4), the plates were incubated for two hours at room temperature with 50 μl/well SmartBlock (Candor, #113500). After blocking, the plates were washed three times with washing buffer. Then, a dilution series of the respective antibody (1E-7 [M] down to 2E-13 [M]) in PBS+0.05% Tween, 10% SmartBlock were added in 30 μl to the microtiter plate and incubated for 90 min at room temperature. After three additional washes, 30 μl anti mouse IgG HRP-conjugated antibody (Biotechne, HAF007), diluted 1:1000 in PBS+0.05% Tween (pH 7.4), were added per well and incubated for one hour. After three additional washes, a mixture of Amplex red (Invitrogen, #12222, 10 mM stock solution in DMSO) 1:1000 diluted in PBS and H2O2 (30%, Merck, #107209)) diluted 1:10000 in PBS were added as substrate with 30 μl per well and incubated for 20 min in the dark. Relative fluorescence was measured with a microtiter plate reader at 535/590 nm.
Next, the 42 antibodies were subjected to an IL2Ra binding ELISA as described in Example 20.

murine IL-11 = molecular target: T2, murine IL-11 (mouse, UniProt P47873 22-199); experiment: cell-based or functional assay
T2 sequence: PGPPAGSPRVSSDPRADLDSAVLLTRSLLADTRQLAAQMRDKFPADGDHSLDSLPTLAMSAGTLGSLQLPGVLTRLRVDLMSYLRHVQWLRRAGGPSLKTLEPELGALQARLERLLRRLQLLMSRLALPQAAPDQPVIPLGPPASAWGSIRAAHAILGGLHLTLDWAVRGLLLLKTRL

human IL-11 = molecular target: T3, human IL-11 (human, UniProt P20809 22-199); experiment: cell-based or functional assay
T3 sequence: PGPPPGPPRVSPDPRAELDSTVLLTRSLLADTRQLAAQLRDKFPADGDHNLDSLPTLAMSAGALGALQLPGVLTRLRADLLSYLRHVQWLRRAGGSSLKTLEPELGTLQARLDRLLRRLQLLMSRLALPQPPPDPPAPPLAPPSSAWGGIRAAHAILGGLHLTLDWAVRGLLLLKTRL

| Binder | hIL2RA ELISA Binding: Ratio to Isotpye (human IL2Ra) | RGA Efficacy (%) (murine IL-11) | RGA IC50 (murine IL-11) | RGA Efficacy (%) (human IL-11) | RGA IC50 (human IL-11) |
| --- | --- | --- | --- | --- | --- |
| B1 | 334 ratio | 92.1% | 1.6 nM | 68.9% | 4.1 nM |
| B2 | 447 ratio | 94.9% | 1.1 nM | 75.5% | 3.3 nM |
| B3 | 232 ratio | 96.4% | 1.5 nM | 70% | 2.2 nM |
| B4 | 385 ratio | 93.9% | 2.1 nM | 69.2% | 13 nM |
| B5 | 275 ratio | 97.9% | 1.5 nM | 69.4% | 9.8 nM |
| B6 | 474 ratio | 96.3% | 1.5 nM | 62.9% | 4.1 nM |
| B7 | 436 ratio | 95.2% | 1.2 nM | 70.4% | 5.9 nM |
| B8 | 96 ratio | 96.9% | 0.94 nM | 70.1% | 3.1 nM |
| B9 | 557 ratio | 94.7% | 0.94 nM | 74% | 5.6 nM |
| B10 | 522 ratio | 94.3% | 1.1 nM | 65.8% | 22 nM |
| B11 | 183 ratio | 93.5% | 1.8 nM | 57.1% | 3.7 nM |
| B12 | 481 ratio | 95.7% | 2.3 nM | 70.2% | 22 nM |
| B13 | 379 ratio | 93.1% | 2.9 nM | 71% | 20 nM |
| B14 | 384 ratio | 96.9% | 0.95 nM | 73.7% | 2.8 nM |
